From the supplement of paper PMC10724198
± gives the standard deviation of the averaged measurements.

test system: Saccharomyces cerevisiae; assay: protein stability index of tFT-peptide fusion (C-terminal peptide) (PSI (0-1 scale)); higher = more stable (slower turnover); settings: genetic background: wild type; temperature: 30 C
Description: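 Multiplexed protein stability (MPS) profiling in S. cerevisiae. Random 12-aa peptides (tFT-X12 library) are fused to the C-terminus of a sfGFP-mCherry tandem fluorescent timer, after mCherry and a GGGS linker. Cells are FACS-sorted into 8 mCherry/sfGFP bins and deep-sequenced. The protein stability index (PSI) is the read-weighted bin average, scaled from 0 (unstable) to 1 (stable). Only peptides with >10 reads are reported; cells were grown at 30 °C in SC-His with glucose.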
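Further: PSI is a weighted mean of sequencing reads over stability bins, variants kept only with over 10 reads, mCherry proximal and sfGFP distal, peptide attached via GGGS linker.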

| Sequence | protein stability index |
| --- | --- |
| HNRSFLIPFFPF | 0.671 ± 0.085 |
| HPKASNSLRFSS | 0.649 ± 0.0072 |
| HPLPPTGPPSPS | 0.77 ± 0.041 |
| HPPLAPQPPPPP | 0.711 ± 0.033 |
| HPPLPRPPPPPP | 0.645 ± 0.057 |
| HPPPLGSSASNS | 0.703 ± 0.039 |
| HPPPPSPPSPLP | 0.724 ± 0.036 |
| HPPPTPPSPPPP | 0.667 ± 0.088 |
| HPPPTSQPPPGP | 0.726 ± 0.05 |
| HPPRPPLPRPRL | 0.778 ± 0.19 |
| HPPSLPSAPSLP | 0.694 ± 0.029 |
| HPPYRHHPAPLR | 0.673 ± 0.058 |
| HPQPIPVGGLSF | 0.6962 ± 0.0049 |
| HPSGLFSFVCLS | 0.567 ± 0.0057 |
| HPSREPLLLCYH | 0.618 ± 0.067 |
| HPTDVAISPRPS | 0.678 ± 0.023 |
| HPTSHRPLPAAF | 0.724 ± 0.0075 |
| HPTSNQATGRAN | 0.692 ± 0.077 |
| HREQSTILDLKE | 0.715 ± 0.036 |
| HRFFDGVRFPGH | 0.692 ± 0.038 |
| HRFPPDLYQHGP | 0.645 ± 0.011 |
| HRFPPPRPPPFS | 0.729 ± 0.047 |
| HRLTFLDTPSGH | 0.781 ± 0.076 |
| HRNAFLLPPFPL | 0.695 ± 0.014 |
| HRQERLETKTYF | 0.623 ± 0.13 |

| Sequence | protein stability index |
| --- | --- |
| HSFASTWYSSPG | 0.685 ± 0.0076 |
| HSGPPSPFPLNV | 0.718 ± 0.034 |
| HSHTHRHSHGTR | 0.7 ± 0.083 |
| HSPPPSLGPVPA | 0.6636 ± 0.0049 |
| HSRAPNNWHRGI | 0.708 ± 0.043 |
| HSRPRRQPPHSP | 0.705 ± 0.018 |
| HSTENGGCTREY | 0.646 ± 0.039 |
| HSTPDSAAQEPG | 0.673 ± 0.065 |
| HTLQDERNRRRD | 0.696 ± 0.072 |
| HTPTFPTSPPPP | 0.68 ± 0.016 |
| HTWAFYSETVCL | 0.694 ± 0.0092 |
| HVHSLAFPPPAT | 0.695 ± 0.068 |
| HVKVGCGNGIVR | 0.644 ± 0.014 |
| HVLRCRASLLFL | 0.6305 ± 0.0031 |
| HVPFPPTVLNSP | 0.667 ± 0.088 |
| HVTHRAVNVPLE | 0.674 ± 0.029 |
| HWCQKNKFKAIS | 0.669 ± 0.033 |
| HWSVATNMLEQH | 0.74 ± 0.054 |
| HYSLSHLRIVLD | 0.645 ± 0.011 |
| IAFLSRCWSFYL | 0.49 ± 0.014 |
| IAFSINAFCWRG | 0.552 ± 0.055 |
| IAMVTLPRLNKS | 0.7179 ± 0.0071 |
| IARKCLTGGGVS | 0.696 ± 0.065 |
| IAYGCCYKELII | 0.63 ± 0.046 |
| ICGLLFNLCKHD | 0.622 ± 0.045 |

| Sequence | protein stability index |
| --- | --- |
| ICITIRQTRENK | 0.668 ± 0.027 |
| ICLMRETAGRED | 0.757 ± 0.2 |
| IDCCAGDSMAGI | 0.703 ± 0.072 |
| IDKVTNTGSRKV | 0.582 ± 0.05 |
| IDSNLCFVKSYT | 0.618 ± 0.064 |
| IEGKDSQEREGR | 0.706 ± 0.075 |
| IERRCGRCMCFM | 0.783 ± 0.1 |
| IESFFLFSFSFP | 0.762 ± 0.31 |
| IFKSGLPLRVGL | 0.657 ± 0.028 |
| IFRFHRSRNSKY | 0.722 ± 0.029 |
| IFWGFSFRGGGC | 0.656 ± 0.029 |
| IGDRQIDFFKKD | 0.7073 ± 0.0024 |
| IGEAWERGQEAK | 0.679 ± 0.027 |
| IGITWDVFLGLG | 0.705 ± 0.03 |
| IGKLDYVCWRVL | 0.602 ± 0.029 |
| IGLPCSSGCCCH | 0.702 ± 0.088 |
| IGLVRPSGTQQT | 0.6764 ± 0.006 |
| IGLVVVRPKIMI | 0.558 ± 0.012 |
| IGNFTTEVDGWG | 0.662 ± 0.036 |
| IGRSPRVLSATP | 0.6534 ± 0.0059 |
| IGSFTRTTKKFK | 0.723 ± 0.0073 |
| IGSHDTRVVKMD | 0.731 ± 0.059 |
| IGSLASRSALLL | 0.676 ± 0.0083 |
| IGVAARPWAGAQ | 0.706 ± 0.02 |
| IGVNEDSAIVCM | 0.562 ± 0.024 |

| Sequence | protein stability index |
| --- | --- |
| IGYHGRSLGWKR | 0.635 ± 0.082 |
| IHDGKKEGKSQK | 0.695 ± 0.017 |
| IHLALYKYEVMG | 0.584 ± 0.017 |
| IHQQEVKSRICT | 0.592 ± 0.031 |
| IHSPSAYLQPSF | 0.761 ± 0.029 |
| IICDIFYCSTVS | 0.644 ± 0.01 |
| IIDCQVSFSFLI | 0.588 ± 0.063 |
| IIIEYNINRKKI | 0.611 ± 0.05 |
| IIKMNERTLTKI | 0.692 ± 0.099 |
| IKGSLILRGRGE | 0.657 ± 0.025 |
| IKKEKKQKKKKG | 0.665 ± 0.098 |
| IKKKKKEKGDST | 0.713 ± 0.082 |
| IKKKKKKGIILD | 0.71 ± 0.05 |
| IKKKKKKKKKRD | 0.652 ± 0.016 |
| IKKKKKKTPKNM | 0.714 ± 0.062 |
| IKKKQKIPKNAK | 0.678 ± 0.013 |
| IKKNHKENKRKE | 0.666 ± 0.016 |
| IKLVVLGPLVWF | 0.625 ± 0.018 |
| IKNMWLACFGLY | 0.667 ± 0.027 |
| IKNQNKKKKNKK | 0.689 ± 0.05 |
| IKPVETEKRECK | 0.668 ± 0.094 |
| IKSDCKDRRKRR | 0.7233 ± 0.0072 |
| IKTKREKNGVSS | 0.722 ± 0.016 |
| IKVIACSEPIPG | 0.592 ± 0.021 |
| ILCLAPLSCYPV | 0.832 ± 0.055 |

| Sequence | protein stability index |
| --- | --- |
| ILCPGLYQFLVF | 0.529 ± 0.038 |
| ILDSPMWQPVSM | 0.727 ± 0.056 |
| ILFSSDLNSFSW | 0.744 ± 0.03 |
| ILQWEESRKGGI | 0.715 ± 0.054 |
| ILRGRDLPHGLG | 0.688 ± 0.03 |
| ILRLSLPYEGYI | 0.645 ± 0.032 |
| IMGIIKFKSYRI | 0.703 ± 0.12 |
| IMKQHNYIGFVF | 0.608 ± 0.062 |
| IMNNSKIYRSVG | 0.6593 ± 0.0021 |
| IMVLKAAVSKQE | 0.69 ± 0.09 |
| INGICDPQANSR | 0.71 ± 0.027 |
| INKATYTQIYKN | 0.667 ± 0.021 |
| INQEKKLKNNKK | 0.70627 ± 0.0004 |
| INWIHERNDKSI | 0.734 ± 0.027 |
| IPCKVCQSLIPP | 0.611 ± 0.12 |
| IPGSPIATARPG | 0.665 ± 0.025 |
| IPPFLVSLPFLP | 0.702 ± 0.018 |
| IPSCAGLPLSLS | 0.7134 ± 0.0019 |
| IPSCSTPAPHLP | 0.677 ± 0.022 |
| IQAVSRDYVELR | 0.652 ± 0.031 |
| IQKNKQEVKTNI | 0.685 ± 0.1 |
| IRDKTSIRKLEK | 0.677 ± 0.058 |
| IRFCILRRLGRH | 0.588 ± 0.028 |
| IRKGKKIRKKEN | 0.641 ± 0.037 |
| IRLPHPPLPPSP | 0.6673 ± 0.0025 |

| Sequence | protein stability index |
| --- | --- |
| IRPRRFSPGSTR | 0.7 ± 0.043 |
| IRPWPLDPPPGR | 0.78 ± 0.08 |
| IRRAGPMVAKGK | 0.649 ± 0.086 |
| ISAPLPTLLSVL | 0.559 ± 0.041 |
| ISCVSFCCLFDL | 0.601 ± 0.0022 |
| ISFGSKLPHHLP | 0.657 ± 0.11 |
| ISGDGWNFVGIV | 0.715 ± 0.097 |
| ISGRRPWGFGGE | 0.642 ± 0.041 |
| ISPQEPLVNTTN | 0.665 ± 0.018 |
| ISPSASTSRPFQ | 0.697 ± 0.11 |
| ISRLLMAMESRN | 0.653 ± 0.024 |
| ISSNMIVMAICG | 0.6 ± 0.03 |
| ISSTGYQARHRG | 0.688 ± 0.03 |
| ISVDNTKFLFRS | 0.687 ± 0.023 |
| ISYIGCCKIVLT | 0.553 ± 0.0086 |
| ITRLSPPSSVRL | 0.7 ± 0.039 |
| ITTLGSVSRDSR | 0.722 ± 0.062 |
| IVGAGVFEERWG | 0.77 ± 0.023 |
| IVGLGLENGKEI | 0.704 ± 0.042 |
| IVLAGVCGGVVG | 0.733 ± 0.29 |
| IVLLSLSCRSPG | 0.594 ± 0.014 |
| IVQETKYFVRRS | 0.685 ± 0.082 |
| IVRTMLKLFVDV | 0.5827 ± 0.0037 |
| IVSGVSVHLGVG | 0.6115 ± 0.0029 |
| IVVRPAGGGTQS | 0.663 ± 0.019 |

| Sequence | protein stability index |
| --- | --- |
| IWGKREDKNVYR | 0.71 ± 0.025 |
| IWPGASLALLTS | 0.606 ± 0.011 |
| IWRPGVAQSGLA | 0.7205 ± 0.0055 |
| IYAQFCSLYDHP | 0.702 ± 0.013 |
| IYERTEENKRVN | 0.591 ± 0.0088 |
| IYSFFHHRFVTV | 0.546 ± 0.0081 |
| KAASSLSRPAHL | 0.734 ± 0.074 |
| KAIVKKCTDSED | 0.679 ± 0.011 |
| KALNLAAAILYG | 0.638 ± 0.015 |
| KALQRKCRKRHK | 0.673 ± 0.039 |
| KCKGTCESRRGI | 0.833 ± 0.034 |
| KCPRPDATLYQS | 0.721 ± 0.042 |
| KDKKKENKNNGE | 0.6787 ± 0.0036 |
| KDKSQKKERQKT | 0.664 ± 0.029 |
| KDQRAKRRRREE | 0.679 ± 0.08 |
| KDRRNKNKRQEY | 0.633 ± 0.012 |
| KECGICGAVVGL | 0.63 ± 0.092 |
| KEENKKKKKKRI | 0.755 ± 0.081 |
| KEGRKKKRQINT | 0.803 ± 0.076 |
| KEHKSQRSRVWR | 0.719 ± 0.011 |
| KEKKAKKSRKKR | 0.665 ± 0.084 |
| KEKKNNRQRKER | 0.642 ± 0.016 |
| KELPAGRQSEPD | 0.636 ± 0.034 |
| KERKHKRTRQQT | 0.666 ± 0.021 |
| KFNFVRMSSLRL | 0.692 ± 0.16 |

| Sequence | protein stability index |
| --- | --- |
| KFRLAGSVARSG | 0.684 ± 0.013 |
| KFSVVMFLDGSW | 0.697 ± 0.084 |
| KGENKRRVRKKN | 0.574 ± 0.014 |
| KGIDTYVLQRNE | 0.715 ± 0.0095 |
| KGKRKETKKTKG | 0.667 ± 0.017 |
| KGLKQLMQIRME | 0.605 ± 0.064 |
| KGQGAYEGVGKE | 0.663 ± 0.019 |
| KGRKVVLETQLQ | 0.7 ± 0.018 |
| KGRLVGWDRNRI | 0.75 ± 0.07 |
| KGRTEKRGEKRT | 0.717 ± 0.017 |
| KHEKGEKNKIEK | 0.664 ± 0.055 |
| KHIIPSAYTPEG | 0.661 ± 0.023 |
| KHKRKGSERKQG | 0.608 ± 0.0066 |
| KHQKNRLRDLGS | 0.708 ± 0.03 |
| KHVRIEVITERN | 0.635 ± 0.056 |
| KIGNQLQELRRI | 0.696 ± 0.017 |
| KIHINTMFQIKK | 0.536 ± 0.051 |
| KIIGVRLKFDRS | 0.761 ± 0.14 |
| KIKEIIKIKKKR | 0.678 ± 0.009 |
| KIKKKKYTKYTK | 0.553 ± 0.052 |
| KIKNKKNKCKKK | 0.751 ± 0.14 |
